Experimental data taken from the nanobody polyreactivity screen of Harvey et al. (2022).

test: yeast display, Sf9 membrane polyspecificity reagent, FACS + sequencing; frameworks hold sequencing errors
Method in brief: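 Nanobodies from a synthetic yeast display library (Saccharomyces cerevisiae BJ5465), induced 36–48 hours with galactose, were stained 1 hour at 4 °C with 10% biotinylated, detergent-solubilized Sf9 membrane reagent, enriched on streptavidin microbeads, then FACS-sorted. Anti-HA (expression) and streptavidin (reagent binding) fluorescence set low and high (top ~1%) gates. Polyreactivity labels come from the gate of origin. Genes were colony-PCR amplified, MiSeq 2 × 250 sequenced and filtered by CDR length.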

| Sequence | polyreactivity (PSR sort gate) |
| --- | --- |
| QVQLVESGGGLVQAGGSLRLSCAASGFTFGYYAMGCYRQAPGKERELVAAISWSGGSTYYADSVKGRFTISRDNAKNTVYLQMNSLKPEDSAVYYCAAQSYLGRTWLDYWGQGTQVTVSS | high polyreactivity |
| QVQLVESGGGLVQAGGSLRLSCAASGTTFGRYAMGWYRQAPGKERELVAAITRSGGRTYYADSVKERFTISRDNAKNTVYLQMNSLIPEDTAVYYCAAVGNLYYTSLWQYDYWGQGTQVTVSS | high polyreactivity |
| QVQIVESGGGVVQAGGSLRLICAASGSTFLVYAMGWYRQAPGKERELVAAISGRGGRTYYADSVKGRFTISRDIAKNTVYLQMNSLKPEDTAVYYCAKVSKYGAYDYWGQGTQVTVSS | high polyreactivity |
| QVQLVESGGGLVQAGGSLRLSCAASGSTFWSNVMGWYRQAPGKERELVSAISYGGVTTSYADSVKGRFTISRDNAKNTVYLQMNSLKPEDTAVYYCAAYNGAHSHFGYWGQGTQVTVSS | low polyreactivity |
| QVQLVESGGGLVQAGGSLRLSCAASGSTLTRNDMGWYRQAPGKERELVAAITFSGSDTYYADSVKGRFTISRDNANNTVYLQMNSLKPEDTAVYYCAAEYGGYEYDQWGQGTQVTVSS | low polyreactivity |
| QVQLVESGGGLVQAGGSLSLSCAASGNTFWGYAMGWYRQAPGKEREFVARINWSGGRTYYAESVKGRFTISRDNAKNTVYLQMNSLKPEDTAVYYCAATSLIYGYRTYDYWGQGTQVTVSS | high polyreactivity |
| QVQLVESGGGLVQAGGSLRLSCAASGSIFLVNAMGWYRQAPGKERELVAAIRGSGGSTYYADSVKGRFTISRDNAKNTVYLQMNSLKPEDTAVYYCAADIWRLAYDYWGQGTQVTVSS | low polyreactivity |
| QVQHVESGGGLVQAGGSLRLTCAASGITFYRYAMGWYRQATGKEREFVAAINYGGSSTRYADSVKGRFTISLDNAKNSVYLQMNSLKPEDTAVYYCAVEKRYPRRRYDYWGQGTQVTVSS | low polyreactivity |
| QVQLVESGGGLVQAGGSLRLSCADSGSIFKYYVMGWYRQAPGKERELVADITSGGSTKYADSVKGRFTISRDNAKNTVYLQMNSLKPADTAVYYCAASWWYEIFDYWGQGTQVTVSS | low polyreactivity |
| QVQLVESGGGLVQPGGSLRLSCAASGSIFGSYDMGWYRQAPGKERELVAAITYSVGTTYYADSVKGRFTISRDNAKNTVYLQMNSLKPEDNAVYYCAADFAPVGLPSPFAVSEGEDDYWGQGTQVTVSS | low polyreactivity |
| QVQLVESGGGLVQAGGSLRLSCAASGSTFVYNDMGWYRQAPGKEGELVAGITTSGGSTYYADSVKGRFTISRDNAKNTVYLQINSLKPEDTAVYYCAARAFSAWLEMDYWGQGTQVTVSS | low polyreactivity |
| QVQLVESGGGLVQAGGSLRISCAASGRICIYYTMGWYRQAPGKDREFVAAITYSGGSTRYADSVKGRFTISRDNAKNTVYFQMNSLKTEVTAVYYCAAKFSVRRGFDYWGQGTQVTVSS | low polyreactivity |
| QVQLVESGGGLVQAGGSLRLSCAASGFTFSFYAMGWYRQAPGKERELVAAITNGGSTYYADSVKGRFTISRDNAKNTVYLQMNSLKPEDTAVYYCAAEWDYPWWRIVAVYGYEYWGQGTQVTVSS | low polyreactivity |
| QVQLVESGGGLVQAGGSLRLSCAASGFIFHKYFMGWYTQAPGKERELVAAISRSGASTYYADSVKGRFTISRDNAKNTVYLQMNSLKPEDTAVYYCAKDYQTYSGSSDFDYWGQGTQVTVSS | high polyreactivity |
| QVQLVESGGGLVQAGGSLRFSCAASGTFYYYAMGWYRHAPGKERELVAAISYSGGRTYYADSVKGRFTISRDNAKNTVYLQMNSLKPEDTAVYYCNALYRKTPSYGADDYWGQGTQVTVSS | high polyreactivity |
| QVQLVESGGGLVQAGGSLRLGCAASGITFNLYAMGWYRQAPGKERELVAAISRSATSTYYADSVKRRFTISRDNAKNTVYLQMNSLKPEDTAVYYCATRGHYRQTINYWGQGTQVTVSS | high polyreactivity |
